The source of these data is patent US20220089752A1 (University of California, published 2022).

Assay [1] deals with ephrin type-A receptor 2 (EphA2) on cells (human) (UniProt P29317). Briefly: cell-based or functional assay.
Assay [2] concerns the target activated leukocyte cell adhesion molecule (ALCAM) on human cell lines (human) (UniProt Q13740). Briefly: cell-based or functional assay.
In assay [3] the target is T1, recombinant human EphA2 (human, UniProt P29317 25-534).
T1 construct: also called human recombinant EphA2 protein
T1 sequence (P29317 25-534 limits assumed): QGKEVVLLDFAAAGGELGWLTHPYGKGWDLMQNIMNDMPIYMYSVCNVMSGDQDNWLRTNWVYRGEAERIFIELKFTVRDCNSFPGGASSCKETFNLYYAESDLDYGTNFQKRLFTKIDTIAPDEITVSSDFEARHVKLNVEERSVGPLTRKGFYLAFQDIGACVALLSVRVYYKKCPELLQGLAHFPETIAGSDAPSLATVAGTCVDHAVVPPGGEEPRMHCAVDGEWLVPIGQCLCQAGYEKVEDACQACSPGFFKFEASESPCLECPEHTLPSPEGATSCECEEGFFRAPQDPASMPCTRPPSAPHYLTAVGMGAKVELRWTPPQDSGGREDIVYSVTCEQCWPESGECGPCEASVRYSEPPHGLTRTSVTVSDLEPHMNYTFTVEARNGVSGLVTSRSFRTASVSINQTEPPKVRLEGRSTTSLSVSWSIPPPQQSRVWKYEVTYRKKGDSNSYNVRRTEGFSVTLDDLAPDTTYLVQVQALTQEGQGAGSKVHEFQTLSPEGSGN
Briefly: flow cytometry of yeast-displayed scFv with human recombinant EphA2, curve fit of normalized MFI (apparent KD). From the text: FIGS. 10A-10B graphically illustrate the selection and characterization of anti-EphA2 scFvs from yeast display mutagenesis libraries. FIG. 10A: Apparent KD measurement of four new EphA2 scFvs binding affinity to human recombinant EphA2 protein. In this experiment, RYRgerm is the germline version of RYR. The remaining samples were RYRgerm derivatives with high binding affinity. Apparent KD values were estimated by curve-fitting of normalized MFI values. FIG. 10B: Apparent KD measurement of four new EphA2 scFvs binding affinity to mouse recombinant EphA2-Fc fusion protein. Apparent KD values were estimated by curve-fitting of normalized MFI values.
(§1) This Example describes experiments performed to identify new versions of EphA2 binding scFv antibodies with improved binding affinity. The original EphA2 binding scFv RYR has been described previously in PCT/US2015/039741, in which EphA2 binding scFv RYR was named HCA-F1 and a germline version of RYR was named RYRgerm. To identify new versions of EphA2 binding scFv antibodies improved binding affinity for EphA2, yeast display mutagenesis libraries based on RYRgerm were generated and selected by FACS for higher affinity binders. Four new EphA2 scFvs with high binding affinity for EphA2 were identified and named […], RYRgerm_102919_15, RYRgerm_102919_22, and RYRgerm_102919_33, respectively. The amino acid sequences of VH and VL regions as well as the CDRs for these newly identified EphA2 scFvs are presented in Tables 4-5 and the Sequence Listing. In these eperiments, both human and mouse recombinant EphA2 proteins were used in selection to maintain cross-species binding. Apparent affinity was measured by flow cytometry for binding to both human and mouse EphA2.

The target of assay [4] is T2, mouse recombinant EphA2-Fc fusion protein (mouse, UniProt Q03145 26-535, limits assumed).
T2 construct: also called mouse EphA2; not shown: Fc part
T2 sequence (Q03145 26-535 limits assumed): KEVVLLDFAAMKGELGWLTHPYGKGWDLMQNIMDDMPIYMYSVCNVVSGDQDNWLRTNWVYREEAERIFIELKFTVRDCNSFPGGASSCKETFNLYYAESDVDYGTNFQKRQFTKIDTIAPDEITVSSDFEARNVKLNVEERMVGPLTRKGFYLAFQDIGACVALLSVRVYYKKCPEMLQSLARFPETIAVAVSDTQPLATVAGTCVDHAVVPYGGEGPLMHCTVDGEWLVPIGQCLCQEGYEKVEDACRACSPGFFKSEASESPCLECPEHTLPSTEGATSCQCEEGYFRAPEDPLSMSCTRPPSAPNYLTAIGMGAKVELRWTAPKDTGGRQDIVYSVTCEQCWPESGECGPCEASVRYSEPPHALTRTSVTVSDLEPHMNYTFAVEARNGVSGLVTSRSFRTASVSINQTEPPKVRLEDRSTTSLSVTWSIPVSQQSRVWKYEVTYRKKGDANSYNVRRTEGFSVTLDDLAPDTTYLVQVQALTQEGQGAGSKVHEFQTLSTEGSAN
Briefly: flow cytometry of yeast-displayed scFv with mouse recombinant EphA2-Fc, curve fit of normalized MFI (apparent KD).
From the text: (§2) In this experiment, RYRgerm is the germline version of RYR. The remaining samples were RYRgerm derivatives with high binding affinity. Apparent KD values were estimated by curve-fitting of normalized MFI values. FIG. 10B: Apparent KD measurement of four new EphA2 scFvs binding affinity to mouse recombinant EphA2-Fc fusion protein. Apparent KD values were estimated by curve-fitting of normalized MFI values.
as §1
For orientation: A flow cytometer gives signals particle by particle.

Assay [5] has as its target T1, recombinant human EphA2. Briefly: flow cytometry of yeast-displayed scFv with recombinant human EphA2 at 0-100 nM.
From the text: as §2
as §1, with “In these eperiments, both human and mouse recombinant EphA2 proteins were used in selection to maintain cross-species binding.” left out

In assay [6] the target is T1, recombinant human EphA2. Briefly: BLI (Probe Life Gator), IgG1 on anti-human Fc probes, 100 nM recombinant human EphA2, 25 C.
For assay [7], the target named is T3, ephrin type-A receptor 2 (EphA2) on cells (human, UniProt P29317 24-976).
T3 construct: whole, on cells
T3 sequence (P29317 24-976): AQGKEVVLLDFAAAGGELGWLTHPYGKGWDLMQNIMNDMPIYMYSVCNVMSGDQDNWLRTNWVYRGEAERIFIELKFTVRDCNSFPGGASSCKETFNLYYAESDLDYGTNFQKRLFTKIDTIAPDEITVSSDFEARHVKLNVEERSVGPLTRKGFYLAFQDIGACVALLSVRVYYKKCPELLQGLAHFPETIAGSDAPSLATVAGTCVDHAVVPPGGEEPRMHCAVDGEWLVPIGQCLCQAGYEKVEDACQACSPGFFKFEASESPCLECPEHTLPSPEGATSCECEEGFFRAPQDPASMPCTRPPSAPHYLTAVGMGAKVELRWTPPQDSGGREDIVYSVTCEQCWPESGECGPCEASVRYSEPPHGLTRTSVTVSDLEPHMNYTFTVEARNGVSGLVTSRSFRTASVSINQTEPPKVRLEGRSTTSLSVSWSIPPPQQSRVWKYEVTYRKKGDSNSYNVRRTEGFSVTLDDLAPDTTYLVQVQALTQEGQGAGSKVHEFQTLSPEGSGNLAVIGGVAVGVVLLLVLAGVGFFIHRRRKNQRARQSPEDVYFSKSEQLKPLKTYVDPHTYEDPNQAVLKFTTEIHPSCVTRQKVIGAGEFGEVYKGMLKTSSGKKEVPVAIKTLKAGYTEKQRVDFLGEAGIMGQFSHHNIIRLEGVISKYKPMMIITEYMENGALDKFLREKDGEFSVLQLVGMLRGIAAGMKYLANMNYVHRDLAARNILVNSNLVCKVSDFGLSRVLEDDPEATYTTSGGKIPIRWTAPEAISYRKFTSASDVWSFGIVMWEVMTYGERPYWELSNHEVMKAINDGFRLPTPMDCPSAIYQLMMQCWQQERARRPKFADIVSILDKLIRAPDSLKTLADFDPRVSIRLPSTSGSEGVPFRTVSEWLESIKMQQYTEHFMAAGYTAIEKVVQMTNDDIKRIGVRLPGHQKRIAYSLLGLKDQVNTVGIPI
Put plainly: flow cytometry on DU145 cells, 1 h at 25 C, 40 pM to 125 nM, MFI curve fit (apparent KD). The method, then: In these experiments, apparent binding affinity of RYR IgG1 versus RYRgerm_102919_15 IgG1 on DU145 cells was evaluated. In these experiments, DU145 cells were incubated for 1 h at 25° C. with RYR or RYRgerm_102919_15 at a range of concentrations between 40 pM to 125 nM, washed, and binding detected with anti-human Alexa Fluor 647. MFI values were curve-fit to generate the apparent KD values.

Assay [8] has as its target T4, activated leukocyte cell adhesion molecule (ALCAM) on human cell lines (human, UniProt Q13740 28-583).
T4 construct: whole, on cells
T4 sequence (looked up): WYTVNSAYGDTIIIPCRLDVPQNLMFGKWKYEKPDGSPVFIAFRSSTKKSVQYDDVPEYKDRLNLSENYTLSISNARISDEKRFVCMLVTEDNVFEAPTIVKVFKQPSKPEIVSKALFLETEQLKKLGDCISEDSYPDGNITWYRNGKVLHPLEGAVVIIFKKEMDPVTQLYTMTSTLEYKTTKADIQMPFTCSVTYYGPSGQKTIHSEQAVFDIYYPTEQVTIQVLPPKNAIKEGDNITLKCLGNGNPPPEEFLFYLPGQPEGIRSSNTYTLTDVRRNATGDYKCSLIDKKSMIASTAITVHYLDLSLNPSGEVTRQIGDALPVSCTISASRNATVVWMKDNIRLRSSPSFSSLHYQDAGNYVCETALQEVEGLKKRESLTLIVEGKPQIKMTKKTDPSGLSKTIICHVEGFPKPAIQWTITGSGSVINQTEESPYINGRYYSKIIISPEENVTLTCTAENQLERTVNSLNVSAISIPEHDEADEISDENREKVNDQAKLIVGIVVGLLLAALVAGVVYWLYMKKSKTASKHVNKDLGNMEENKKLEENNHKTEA
Put plainly: FACS titration of the IgG1 on live DU145 cells, curve fit (apparent KD). As to the method:
(§3) FIGS. 6A-6D graphically illustrate the selection and characterization of anti-ALCAM scFvs from phage display library. FIG. 6A: Enrichment of ALCAM-binding phage through three rounds of selection. Recombinant Fc-fusion of ALCAM-V domain was immobilized on magnetic beads and utilized for scFv phage display library selection. Enrichment was calculated by dividing phage output titer by input phage titer (y-axis on the left). Binding activity of polyclonal phages amplified from each round output was described as folds against the binding of the unselected phage library (y-axis on the right). FIG. 6B: After three rounds of selection, FACS was performed to screen out monoclonal phage binding to the ALCAM^high DU145 cell line. FIG. 6C: Apparent KD of 3F1 IgG on live ALCAM-expressing cells. DU145 cells were incubated with varying concentrations of 3F1 IgG at 4° C. overnight and analyzed by FACS using Alexa® 647-conjugated anti-human IgG. KD value was estimated by curve fitting using GraphPad Prism (GraphPad Software). FIG. 6D: Confocal microscopy study of cellular localization of anti-ALCAM 3F1 IgG. Tumor cell lines were seeded in chamber-well slide and incubated with 3F1 IgG at 37° C. for 2 hours. Antibodies were stained with Alexa® 647-conjugated anti-human antibody (red). […] ALCAM expression measured using 3F1 IgG was shown below microscopic images (lower panel). […]

Assay [9] deals with T4, activated leukocyte cell adhesion …. Briefly: FACS on live DU145 cells, 3F1 IgG at 4 C overnight, Alexa 647 anti-human IgG. The method, then:
as §3

Sequence of ephrin type-A receptor 2 (EphA2) on cells (human) (P29317 24-976): as the sequence (P29317 24-976) above

On to “control C10/RYR bsIgG (bispecific antibody)”, for which, in assay [1], the surface EphA2 removed from pancreatic cancer cells (FACS) came to 85%. Further, in assay [2], the ALCAM Internalization (% over ctrl, Mean, n = 2); HEK293-EphA2#2 cells came to 14.6 % over ctrl; the ALCAM Internalization (% over ctrl, Mean, n = 2); HEK293-EphA2#8 cells stood at 0.5 % over ctrl; the ALCAM Internalization (% over ctrl, Mean, n = 2); HEK293-EphA2#31 cells turned out to be 9.2 % over ctrl; the ALCAM Internalization (% over ctrl, Mean, n = 2); HEK293-EphA2#42 cells is -16.5 % over ctrl. In assay [2], the ALCAM Internalization (% over ctrl, Mean, n = 2); HEK293-EphA2#C9 cells was -9.6 % over ctrl; the ALCAM Internalization (% over ctrl, Mean, n = 2); HEK293-EphA2-0.02 cells came out at 28.6 % over ctrl; the ALCAM Internalization (% over ctrl, Mean, n = 2); HEK293-EphA2-0.1 cells was -22.4 % over ctrl; the ALCAM Internalization (% over ctrl, Mean, n = 2); HEK293-EphA2-0.5 cells was -36.3 % over ctrl. Moreover, in [2], the ALCAM Internalization (% over ctrl, Mean, n = 2); HEK293-EphA2-2.5 cells came out at 7.1 % over ctrl; the ALCAM Internalization (% over ctrl, Mean, n = 2); HEK293-SiRNA2 cells is -6 % over ctrl; the ALCAM Internalization (% over ctrl, Mean, n = 2); HEK293-siRNA1 cells was -3.4 % over ctrl; the ALCAM Internalization (% over ctrl, Mean, n = 2); HEK293-siRNA3 cells is -4.4 % over ctrl. The molecule further came in with an ALCAM Internalization (% over ctrl, Mean, n = 2); HEK293 cells in [2] of 10.8 % over ctrl.

B1: RYRgerm_102919_22 scFv (scFv)
scFv: EVQLVESGGGLVQPGGSLRLSCAASGFTFSSYSMNWVRQAPGKGLEWVSYISSSSSTIYYADSVKGRFTISRDNAKNSLYLQMNSLRAEDTAVYYCARYRLPNFWSGYPNYGMDVWGQGTTVTVSSGGGGSGGGGSGGGGSQSVLTQPPSVSGAPGQRVTISCTGSSSNIGAGYDVHWYQQLPGTAPKLLIYGNSNRPSGVPDRFSGSKSGTSASLAITGLQAEDEADYYCQSYDSSLSGHVVFGGGTKLTVL
For B1, the Kd with recombinant human EphA2 [3] worked out at 28.1 nM; in [4], 1.34 nM.

B2: RYRgerm scFv (scFv)
chain: EVQLVESGGGLVQPGGSLRLSCAASGFTFSSYSMNWVRQAPGKGLEWVSYISSSSSTIYYADSVKGRFTISRDNAKNSLYLQMNSLRAEDTAVYYCARYRLPDFWSGYPNYGMDVWGQGTTVTVSSGGGGSGGGGSGGGGSQSVLTQPPSVSGAPGQRVTISCTGSSSNIGAGYDVHWYQQLPGTAPKLLIYGNSNRPSGVPDRFSGSKSGTSASLAITGLQAEDEADYYCQSYDSSLSGHVVFGGGTKLTVL
Turning to B2, the Kd is 355 nM in the assay with recombinant human EphA2 [3] and 115 nM in [4].

B3: RYRgerm_102919_14 scFv (scFv)
scFv: EVQLVESGGGLVQPGGSLRLSCAASGFTSSSYSMNWVRQAPGKGLEWVSYISSSSSTIYYADSVKGRFTISRDNAKNSLYLQMNSLRAEDTAVYYCARYRLPNFWSGYPNYGMDVWGQGTTVTVSSGGGGSGGGGSGGGGSQSVLTQPPSVSGAPGQRVTISCTGSSSNIGAGYDVHWYQQLPGTAPKLLIYGNSNRPSGVPDRFSGSKSGTSASLAITGLQAEDEADYYCQSYDSSLSGHVVFGGGTKLTVL
notes: also called RYRgerm_102019_14
Take B3: the Kd is 21.3 nM with recombinant human EphA2 [3] and 2.12 nM in assay [4].

B4: RYRgerm_102919_33 scFv (scFv)
scFv: EVQLVESGGGLVQPGGSLRLSCAASGFTFSSYSMNWVRQAPGKGLEWVSYISSSSSTIYYADSVKGRFTISRDNAKNSLYLQMNSLRAEDTAVYYCARYRFPDFWSGYPNYGMDVWGQGTTVTVSSGGGGSGGGGSGGGGSQSVLTQPPSVSGAPGQRVTISCTGSSSNIGAGYDVHWYQQLPGTAPKLLIYGNSNRPSGVPDRFSGSKSGTSASLAITGLQAEDEADYYCQSYDSSLSGHVVFGGGTKLTVL
Consider B4, for which the Kd with recombinant human EphA2 [3] was 42.5 nM; in assay [4] it was 2.87 nM.

B5: RYRgerm_102919_15 scFv (scFv)
scFv: EVQLVESGGGLVQPGGSLRLSCAASGFTFSSYSMNWVRQAPGKGLEWVSYISSSSSTIYYADSVKGRFTISRDNAKNSLYLQMNSLRAEDTAVYYCARYRLPNFWSGYPNYGTDVWGQGTTVTVSSGGGGSGGGGSGGGGSQSVLTQPPSVSGAPGQRVTISCTGSSSNIGAGYDVHWYQQLPGTAPKLLIYGNSNRPSGVPDRFSGSKSGTSASLAITGLQAEDEADYYCQSYDSSLSGHVVFGGGTKLTVL
The EC50 (read off the curve) is the midpoint of the concentration-response curve. As for B5, the Kd with recombinant human EphA2 [3] amounted to 5.58 nM; in assay [4], 2.01 nM. In the assay with recombinant human EphA2 [5], the “EC50 (read off the curve)” value was roughly 5 nM.

B6: RYR IgG1 (antibody, V domains shown)
VH: QVQLQESGGGLVQPGGSLRLSCAASGFTFSSYSMNWVRQAPGKGLEWVSYISSSSSTIYYADSVKGRFTISRDNAKNSLYLQMNSLRAEDTAVYYCARYRLPDFWSGYPNYGMDVWGQGTTVTVSS
VL: QSVLTQPPSVSGAPGQRVTISCTGSSSNIGAGYDVHWYQQLPGTAPKLLIYGNSNRPSGVPDRFSGSKSGTSASLAITGLQAEDEADYYCQSYDSSLSGHVVFGGGT
notes: Recombinant human IgG1 built from the original EphA2 scFv RYR; also called original RYR; HCA-F1
The koff is a measure of how fast the partners let go of each other. One may read the kon as the rate constant with which the complex forms. In the case of B6, in the assay with recombinant human EphA2 [6], the Kd was roughly 28 nM, the koff is 0.0145 s⁻¹ and the kon stood at 518000 M⁻¹ s⁻¹. In addition, the Kd in [7] was 23.7 nM.

B7: anti-ALCAM 3F1 IgG1 (antibody, V domains shown)
VH: EVQLVESGGGLVKPGGSLRLSCAASGFTLSDYSMNWVRQAPGKGLEWVASISSRSSYIYYADSVKGRFTISRDNAKNSLYLGMNSLRAEDTAVYYCTGGQGYSGYDGFQHWGQGTLVTVSS
VL: QSALTQPPSASGTPGQRVTISCSGSSSNIGSNSVSWYQQLPGTAPKLLIYSNTHRPSGVPDRFSGSKSGTSASLAISGLLSEDEADYYCASWDDSLNGGVFGGGTQLTVL
notes: also called anti-ALCAM mAb 3F1
For B7, in [8], the Kd came to 0.0206 nM. In assay [9], the “EC50 (read off the curve)” value is roughly 0.02 nM.
